Like-named read-outs stand apart in the source and are kept apart here. Ends that are not written are not given here.
What was measured:
Assay in all cases: cell-based or functional assay
[1] = target: human Kv1.3 voltage-gated potassium channel (human) (UniProt P22001)
[2] = target: human Kv1.3 channel (human) (UniProt P22001)
[3] = target: human Kv1.1 channel (human) (UniProt Q09470)
[4] = target: human Kv1.3 channel (human) (UniProt P22001); remark: listed apart in the source

human Kv1.3 channel (human), sequence (P22001 whole entry): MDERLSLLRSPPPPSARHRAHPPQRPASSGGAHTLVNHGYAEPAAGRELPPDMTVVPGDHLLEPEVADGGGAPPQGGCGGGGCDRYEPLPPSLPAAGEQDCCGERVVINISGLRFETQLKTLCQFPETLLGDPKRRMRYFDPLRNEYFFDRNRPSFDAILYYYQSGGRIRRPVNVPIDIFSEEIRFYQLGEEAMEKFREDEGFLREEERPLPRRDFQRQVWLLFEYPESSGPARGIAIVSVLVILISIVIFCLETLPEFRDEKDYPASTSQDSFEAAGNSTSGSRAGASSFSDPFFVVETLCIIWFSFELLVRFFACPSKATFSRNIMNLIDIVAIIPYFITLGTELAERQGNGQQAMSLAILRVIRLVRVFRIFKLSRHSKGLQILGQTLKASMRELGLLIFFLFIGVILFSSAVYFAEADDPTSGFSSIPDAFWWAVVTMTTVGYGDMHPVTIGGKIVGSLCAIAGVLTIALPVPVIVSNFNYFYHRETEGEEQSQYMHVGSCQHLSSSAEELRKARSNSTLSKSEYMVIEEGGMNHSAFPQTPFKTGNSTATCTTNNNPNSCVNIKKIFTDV
human Kv1.3 voltage-gated potassium channel (human), sequence (P22001 whole entry): as above
human Kv1.1 channel (human), sequence (Q09470 whole entry): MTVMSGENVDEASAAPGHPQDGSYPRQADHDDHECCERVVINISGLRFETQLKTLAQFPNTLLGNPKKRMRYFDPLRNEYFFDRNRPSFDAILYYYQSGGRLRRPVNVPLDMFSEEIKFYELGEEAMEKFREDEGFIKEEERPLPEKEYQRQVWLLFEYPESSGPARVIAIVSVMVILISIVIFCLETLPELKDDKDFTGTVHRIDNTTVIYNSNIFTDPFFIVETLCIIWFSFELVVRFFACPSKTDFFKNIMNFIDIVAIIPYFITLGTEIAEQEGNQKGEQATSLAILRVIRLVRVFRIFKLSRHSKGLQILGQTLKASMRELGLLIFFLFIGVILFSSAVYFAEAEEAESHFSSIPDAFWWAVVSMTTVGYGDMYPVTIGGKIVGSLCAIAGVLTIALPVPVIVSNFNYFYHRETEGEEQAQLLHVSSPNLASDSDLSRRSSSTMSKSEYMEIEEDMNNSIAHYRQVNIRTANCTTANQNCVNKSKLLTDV

| Molecule | WB/IFNg (IC50, nM), human whole blood assay [1] [nM] | WB/IL-2 (IC50, nM), human whole blood assay [1] [nM] | IC50 of block of the outward potassium current, whole cell patch clamp [2] [pM] | further results |
| --- | --- | --- | --- | --- |
| 20k PEG-OSK1[Ala29, 1Nal34] (peptide) | 0.081 | 0.049 |  |  |
| 20k PEG-ShK (peptide) | 0.065 | 0.046 |  |  |
| Fc-L5-ShK[2-35] (Fc fusion) |  |  | 100 |  |
| Fc-L10-ShK[2-35] (CHO-derived) (Fc fusion) |  |  | 115 |  |
| GGGGS-Osk1 (peptide) | 2.2 | 1.36 |  |  |
| OSK1 (native Orthochirus scrobiculosus toxin peptide) |  |  |  | Kv1.3 Selectivity (=Kv1.1/Kv.3 IC50) [1]: 5 fold |
| OSK1 analogue E16K, K20D (peptide) | 1.32 | 1.58 |  |  |
| Synthetic OSK1 (peptide) |  |  |  | hKv1.1: IC50 [pM], block of K+ current, whole cell patch clamp [3]: 160 pM; hKv1.3: IC50 [pM], block of K+ current, whole cell patch clamp [2]: 39 pM; selectivity ratio hKv1.1/hKv1.3 (IC50 on hKv1.1 over IC50 on hKv1.3) [2]: 4 fold |
| synthetic OSK1 toxin peptide |  |  | 39 |  |
| SCIDTIPKSRCTAFQCKHSMKYRLSFCRKTCGTC (not fully specified; ends and bridges not checked) [ShK[2-35] synthetic peptide analog] |  |  |  | IC50 of block of the outward potassium current, whole cell patch clamp [4]: 49 pM |

— patent publication US20090318341A1
